# Measured values: patent publication US5686583, “Specific antibodies against activated platelets, the preparation thereof and the use thereof in diagnosis and therapy” (Behringwerke Aktiengesellschaft, dated 1997)
# B1: MAb BW 2128 (antibody, V domains shown)
# VH: LQQSGAELVKPGASVTLSCKASGYTFTSYWMHWVKQRPGQGLEWIGEINPSNGRTNYNEKFKSKATLTVDKSSSTAYMHLSSLTSDDSAVYYCARGAGAGGYWGQGTTVTVSS
# VL: QLTQSPAIMSASPGEKVTMTCSASSSVTYMHWCQQKSGTSPKRWIYDTSKLASGVPARFSGSGSGTSYSLTISSMEAEDAATYYCQQWNSNPLTFGAGTKLEI
# Assays:
# [1] = target: human thrombospondin (TSP) (human, UniProt P07996); assay: Western blot
# v. Willebrand factor = v. Willebrand factor (Homo sapiens (Human), UniProt P04275); assay: Western blot
# gP 140 = gP 140 (Homo sapiens (Human), UniProt P16109); assay: Western blot
# fibronectin = fibronectin (Homo sapiens (Human), UniProt P02751-8); assay: immunoprecipitation and Western blotting
# fibrinogen = fibrinogen (Homo sapiens (Human), UniProt P02671-2); assay: immunoprecipitation and Western blotting
# [2] = target: platelet antigen recognized by MAb BW 2128 (human); assay: reaction with platelets; method not further stated
binder,measurement,setting,value
B1,binding result,[1],no binding
same,binding result,v. Willebrand factor,no binding
same,binding result,gP 140,no binding
same,binding result,fibronectin,no binding
same,binding result,fibrinogen,no binding
same,fold stronger reaction with thrombin-activated than with non-activated platelets,[2],> 10 ×
